For 167 variants, self-cleavage results are on record in the RNAGym collection of RNA variant scans (doi:10.7554/elife.80360).

The labels stand for the following.
B1: Hairpin Ribozyme (parent)
chain: GUCCUCUUUCACGUGCGCGUGAAAGAGAGAAGUGAACCAGAGAAACACACGUUGUGGUAUAUUACCUGGUA

The variants in the series derive from B1. Put plainly: self-cleavage, relative activity (ratio to wild type); higher = more cleavage; co-transcriptional.
On to U9A G57U, for which the self-cleavage came out at 0.182.

As for U20C A49U, the self-cleavage is 0.148.

On to A30G G69A, for which the self-cleavage is 0.12.

As for G17C A61G, the self-cleavage was determined as 0.225.

In the case of U7G U62G, the self-cleavage was 0.223.

For the variant G21U A30C, the self-cleavage is 0.232.

With C3G C48A, the self-cleavage was determined as 0.0662.

In the case of U33A G54C, the self-cleavage was 0.128.

Take C4G G56C: the self-cleavage came to 0.111.

With A43C, the self-cleavage worked out at 0.141.

As to C6A C16U, the self-cleavage was 0.659.

Turning to C65A C66A, the self-cleavage turned out to be 0.15.

For G27C C65A, the self-cleavage is 0.146.

A11G G40C: the self-cleavage was 0.188.

Consider U8G G34A, for which the self-cleavage was 0.767.

A39C A44G: the self-cleavage is 0.0893.

For G69A U70G, the self-cleavage was determined as 0.325.

For G21C A30U, the self-cleavage amounted to 0.139.

Turning to G21A A26C, the self-cleavage was found to be 0.0544.

Consider C18U U63G, for which the self-cleavage amounted to 0.278.

Regarding G29C G51C, the self-cleavage is 0.103.

Regarding A49G G54A, the self-cleavage was 0.64.

Regarding C3A G21C, the self-cleavage is 0.489.

For the variant U20C G27A, the self-cleavage is 0.345.

Take A31U A61G: the self-cleavage worked out at 0.159.

As for U20G A41U, the self-cleavage worked out at 1.3.

Regarding U8C G13A, the self-cleavage amounted to 0.722.

On to A41C G57U, for which the self-cleavage turned out to be 0.502.

As for U33G A49U, the self-cleavage was determined as 0.218.

With C3G A64C, the self-cleavage turned out to be 0.129.

As to G19C G32A, the self-cleavage stood at 0.147.

Consider G1U A31U, for which the self-cleavage stood at 0.0996.

Consider G42A A71C, for which the self-cleavage is 0.566.

Take G21C C37G: the self-cleavage was determined as 0.425.

For A49U G68A, the self-cleavage is 0.172.

Take C6G C37U: the self-cleavage was 0.257.

For the variant U7A G13U, the self-cleavage is 0.774.

Turning to U33G A59U, the self-cleavage was 0.

With U5G G32U, the self-cleavage turned out to be 0.132.

For U7A A43U, the self-cleavage amounted to 0.216.

G25A U55C: the self-cleavage was 0.208.

For the variant U7G G21A, the self-cleavage was determined as 0.499.

For the variant U20G U58A, the self-cleavage was found to be 0.501.

Turning to C50U G69C, the self-cleavage stood at 0.142.

With U8G G42A, the self-cleavage came out at 0.156.

Consider A26G A30U, for which the self-cleavage was determined as 0.108.

In the case of G25C U55C, the self-cleavage was found to be 0.108.

Regarding C18G A30G, the self-cleavage was 0.131.

On to G56C A61U, for which the self-cleavage stood at 0.177.

Take A35G U67G: the self-cleavage came out at 0.206.

On to A30C G40C, for which the self-cleavage amounted to 0.0198.

Regarding A36G C37G, the self-cleavage amounted to 0.287.

For the variant G25U U33C, the self-cleavage was found to be 0.145.

Regarding C6U C66G, the self-cleavage came to 0.194.

Turning to G1U G69C, the self-cleavage was 0.0943.

On to A30U C46U, for which the self-cleavage was 0.0965.

For the variant U62G C65A, the self-cleavage came to 0.157.

Take U14C C16G: the self-cleavage worked out at 0.821.

C16G C48U: the self-cleavage worked out at 0.154.

In the case of G1C C65U, the self-cleavage came to 0.188.

As to C4G A23G, the self-cleavage turned out to be 0.25.

With G29U C65G, the self-cleavage was 0.0526.

Turning to A24C G42U, the self-cleavage was 0.374.

Regarding C16U G56C, the self-cleavage worked out at 0.127.

On to A39G C48A, for which the self-cleavage was 0.0878.

Turning to G1A A64U, the self-cleavage was 0.272.

For U5C A43U, the self-cleavage was found to be 0.0569.

Turning to U33A A64U, the self-cleavage is 0.21.

Take C3A G42A: the self-cleavage was determined as 0.146.

Regarding C3U U60C, the self-cleavage was 0.705.

In the case of A41U G57A, the self-cleavage came to 0.145.

U33G A41U: the self-cleavage was found to be 0.251.

G27A A47G: the self-cleavage came to 0.129.

Consider U52C A59U, for which the self-cleavage is 0.115.

For the variant U14G A47G, the self-cleavage amounted to 0.157.

Consider A45G A49G, for which the self-cleavage was 0.177.

A30C U67A: the self-cleavage was found to be 0.0972.

Regarding A41G G57C, the self-cleavage is 0.172.

For A43U U58G, the self-cleavage is 0.0898.

Turning to C10A G40U, the self-cleavage turned out to be 0.141.

Turning to U2C A47C, the self-cleavage amounted to 0.0817.

As to G40A U70G, the self-cleavage is 0.182.

As for C16G U58G, the self-cleavage came out at 0.749.

As to G25A C65U, the self-cleavage was 0.215.

Consider A41C U60A, for which the self-cleavage came out at 1.17.

In the case of U7A A24U, the self-cleavage is 1.15.

Take G15A G21C: the self-cleavage stood at 0.798.

For the variant G32U U33A, the self-cleavage is 0.148.

For U62G A64U, the self-cleavage is 0.0808.

With G13C U14A, the self-cleavage came out at 0.688.

In the case of A45C C48U, the self-cleavage stood at 0.145.

With U9C G42U, the self-cleavage was 0.34.

Take U9C G42A: the self-cleavage is 0.081.

For the variant G19C A31G, the self-cleavage was determined as 0.524.

Take A45C U55G: the self-cleavage was found to be 0.0998.

In the case of G15U G40C, the self-cleavage was 0.0954.

On to G21A A49U, for which the self-cleavage is 0.234.

For the variant G15C A31U, the self-cleavage came to 0.105.

With A59G U70C, the self-cleavage amounted to 0.192.

G15C A22G: the self-cleavage is 0.746.

As for A11C A64U, the self-cleavage was found to be 0.237.

On to U8A G51C, for which the self-cleavage is 0.602.

As to U53G A71C, the self-cleavage came out at 1.29.

On to A11U G19C, for which the self-cleavage worked out at 0.687.

Regarding C38U U62C, the self-cleavage stood at 0.273.

Take G40C A47U: the self-cleavage was found to be 0.0303.

For the variant G13C A39C, the self-cleavage was determined as 0.59.

Regarding G21U A35U, the self-cleavage is 0.626.

In the case of U20C U33C, the self-cleavage is 0.13.

As for A39U G57U, the self-cleavage is 0.123.

On to U8C A64G, for which the self-cleavage stood at 0.443.

With C12U G19A, the self-cleavage turned out to be 1.02.

Consider C6G G51C, for which the self-cleavage came to 0.458.

In the case of C65G G69A, the self-cleavage was 0.138.

Regarding G25C U63C, the self-cleavage amounted to 0.204.

For C4G C66G, the self-cleavage stood at 0.209.

As to U20C A44C, the self-cleavage turned out to be 0.155.

On to U5A G69A, for which the self-cleavage was 0.0903.

In the case of A35U A61U, the self-cleavage was 0.0854.

A11U G21U: the self-cleavage came out at 0.915.

Turning to G34U U55A, the self-cleavage was determined as 1.48.

With G34U U55G, the self-cleavage was 1.27.

Turning to U7A G51U, the self-cleavage amounted to 0.866.

A43C G57A: the self-cleavage stood at 0.137.

With A31G U58C, the self-cleavage was determined as 0.793.

As to A11C C46A, the self-cleavage came out at 0.142.

A36G G57U: the self-cleavage was 0.317.

Regarding A41U G68C, the self-cleavage was 0.262.

On to C4A G15A, for which the self-cleavage came out at 0.227.

Regarding U2C G57A, the self-cleavage was found to be 0.175.

Turning to G17C G19C, the self-cleavage came to 0.68.

As for G15C U70A, the self-cleavage stood at 0.848.

Consider C16A G54C, for which the self-cleavage was determined as 0.432.

On to U2C U67A, for which the self-cleavage turned out to be 0.0712.

Take A43C U53G: the self-cleavage is 0.103.

For G27C G57A, the self-cleavage was 0.15.

Take G27C G57C: the self-cleavage came to 0.0926.

Regarding A49U G54A, the self-cleavage stood at 0.477.

On to C46G U53G, for which the self-cleavage was 0.186.

Turning to U7G U53A, the self-cleavage is 0.967.

For the variant C37G A71C, the self-cleavage stood at 0.784.

For the variant U60C U67C, the self-cleavage was determined as 0.329.

Turning to U60C U67G, the self-cleavage amounted to 0.207.

As to G1A C6G, the self-cleavage stood at 0.193.

Take U7A U14C: the self-cleavage was determined as 0.772.

In the case of A11C A31C, the self-cleavage amounted to 0.116.

In the case of U5A G51U, the self-cleavage was found to be 0.389.

U2A U55A: the self-cleavage is 0.103.

On to C4G U58A, for which the self-cleavage stood at 0.108.

Take C4U A36G: the self-cleavage was 0.465.

For U20C A26C, the self-cleavage is 0.329.

For C3G A47U, the self-cleavage amounted to 0.0452.

A11G U58C: the self-cleavage turned out to be 0.81.

Consider G57A C65U, for which the self-cleavage amounted to 0.231.

As to U5G G27A, the self-cleavage came out at 0.216.

Consider G32A C38A, for which the self-cleavage is 0.115.

With C16A A39U, the self-cleavage stood at 0.364.

Turning to U9C U63C, the self-cleavage amounted to 0.133.

On to A28U U67C, for which the self-cleavage amounted to 0.12.

As to A39U A49C, the self-cleavage is 0.145.

Turning to G15U A23C, the self-cleavage was found to be 1.14.

In the case of U7C A61G, the self-cleavage was found to be 0.164.

With A61G A71C, the self-cleavage was 0.308.

With C3A G17A, the self-cleavage was 0.785.

As for U33G C38A, the self-cleavage was found to be 0.139.

Regarding C48A G56A, the self-cleavage came to 0.135.

As to C6U C12U, the self-cleavage amounted to 0.696.
